# Assay results taken from paper PMC2680606 (Biochemistry, 2009).
# B1: ^35S-RCBTB1 fragment: BTB domain and C-terminal 87 residues (domain or fragment, human, UniProt Q8NDN9 360-531, looked up)
# chain: LKKEFDSPETADLKFRIDGKYIHVHKAVLKIRCEHFRSMFQSYWNEDMKEVIEIDQFSYPVYRAFLQYLYTDTVDLPPEDAIGLLDLATSYCENRLKKLCQHIIKRGITVENAFSLFSAAVRYDAEDLEEFCFKFCINHLTEVTQTAAFWQMDGPLLKEFIAKASKCGAFKN
# modifications: 35S-labelled methionine and cysteine
# Molecular target: Myc-UbcM2-His6 (mouse, UniProt P52483 1-207)
# Test: pull-down
# Sequence of Myc-UbcM2-His6 (P52483 whole entry): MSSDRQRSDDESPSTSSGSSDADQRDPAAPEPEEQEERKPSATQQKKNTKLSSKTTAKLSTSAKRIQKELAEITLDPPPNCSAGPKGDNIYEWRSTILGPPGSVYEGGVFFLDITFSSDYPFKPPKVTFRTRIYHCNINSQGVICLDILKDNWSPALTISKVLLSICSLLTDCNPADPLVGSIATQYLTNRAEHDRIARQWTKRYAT
binder,measurement,value
B1,fold binding against full-length RCBTB1,2 fold
